Measured values from the DeepSol protein solubility set.

Experiment: soluble on expression in E. coli; label from the status in PepcDB or PDB records

Question: Which “soluble on expression in E. coli” value does the source give for “SYTEVRELVNFVCRYLFGHIPRRPVGIFGAELGNYLVSHFSSTWDVHHPKNGEMKRMINTTTSLCFASSAEEAGVPPSDVLRLLPTNMIIFANPGHVFVRLSENGIETPIWIGDVNCDENYQSVPEYVVRTAAIRAEPCSNLGAAGKSVLVGKKPLLTNDKAALEMVNTMYSPLAREKCDDINANLSHLREMYPFRFVYKPSSAQTFSGVEFSQTRFGSSKSRPDLQTMDVIKYLSSQQVSSSSSPSFTYSSINDQMRYSPRF” here?
Answer: Its value is “soluble”.

Question: Which “soluble on expression in E. coli” value does the source give for “MAHHHHHHMYVVGPMVDQSELPFRMLCRRYGATLAYSPMLHARSFAQSAQYRARYFSTTPHRAEPAMTATVSGEGEAAEDAGRTSDGKETDHPLFVQFCGNDADTLLAAARHVEDDCEAVDVNLGCPQGIARRGHYGSFLMEDWDRVHNILHCLAVELRVPVTAKMRVFDDDALTLKYAEMLRDTGIAVLCVHGRTRHNKRGLADMEKIRRVREHLRGSIPVIGNGNVLTFEDVRRNMSVTMTDGYMCAEPLLWDPRLFAAPLHPVRNGRCFAECCEARLDAIRTAQEYLQLVQRYPVDLAFVKAHLFKMLFHSYEMHPVMHGWLTNFSCNGRGGNNNNNAGSDVNGEVEDGDIDDGRSPDGASESGSGNANKAESNVKQAAGNLDFFAFAMDALGEHLRQLYAAEVSCGVEGPQPKRAHEREKGVNDDTSSSAKRKVETSHDAFAEDDVFGIDFDLNKK” here?
Answer: The value was “soluble”.

Question: Which “soluble on expression in E. coli” value does the source give for “MGSDKIHHHHHHMVCNLAIDAYYGCMADFSHILMTRPDFGDDDREWLHQLVADWQVIADLSFADLLLILQNGEGKYIIAEQCRPSTVMSLRAEDVVGNVVPESLCAELDAAMDSESVFRSSKLRTVGKAKVCNVYAPVRHNGKTLGLVVRETNMATRESNGRYESESISAGKQLYEMIPRGQFPYRNPVMNQRHNARVADGFIVLTVDGIVRYASPNAISCFRRLGSVSTMQGEYLSEIGTKLLHENDPVLETLPLVLSGKAAVDSELDANKAAVSMRSLPLMDANGRVGGIVLCRDVSELRRREKELQTKDATISEIHHRVKNNLQAVSALLRLQARKTKSEEVKKELKEAQRRVQTIAMVHEGLSQTADEIVDYDKVISNLLKMAVDLATMRDQHIDVDFVGKFGMMPAQDATPLSLVLTELITNSVEHGFEGRKEGHITISVGRGGNNLNVVVEDDGTGLADEEHDGMARSSGSGLGTQIINTFVTNDFGGTVHWEPRRGGGTRVVLDMKLCAAQDN” here?
Answer: The value was “not soluble”.

Question: With “VADRYAVYWNSSNPRFQRGDYHIDVCINDYLDVFCPHYEDSVPEDKTERYVLYMVNFDGYSACDHTSKGFKRWECNRPHSPNGPLKFSEKFQLFTPFSLGFEFRPGREYFYISSAIPDNGRRSCLKLKVFVRPTNSCM” as the sequence, how does the “soluble on expression in E. coli” value read?
Answer: The value was “soluble”.

Question: Which “soluble on expression in E. coli” value does the source give for “SNAMLNIVLFEPEIPPNTGNIIRLCANTGCQLHLIKPLGFTWDDKRLRRAGLDYHEFADIKHHHDYQAFLDSEKLDSTQPARLFALTTKGTPAHSAVSYQANDYLLFGPETRGLPAYILDALPAQQKIRIPMQADSRSMNLSNAVSVVVYEAWRQLGYPGALLKE” here?
Answer: Its value is “soluble”.

Question: Which “soluble on expression in E. coli” value does the source give for “MFAFSKGPAGSSTYDRVAQKFQDGYEKMRAAIEMDELTKHAGSIQEKLRTAELYKEARSLLKEANEFNIMDIPETRRSEIRDKRQNMMKLEKSAQDRLIAICNEVDPNVKQSRSATVGPSRPASAARVTPRPTRATAPASLPMHQNPVNRAALLNGVDKVIGERLLDEVLDNTGVRMDDVAGCHSAKAALEEAVILPALNPNLFKGLRQPVKGILLFGPPGNGKTLLAKAVAGESKQMFFNISASSLTSKWVGDSEKTIRGLFQIARNAQPSIIFIDEIDSILCERSEKDAEVSRRMKTEFLVQFDGATSSADDRILVIGATNRPHELDDAVLRRFPKRIMLNLPDEEARKELITKTLKKHNMMDGLISSDIRYIASNTSGFSNSDLVALCKEAAMVPIREIDRSKLSMTDGEKIRKIRASDFDTALRTIRPSTSQKIMSKLSDFSRSFGC” here?
Answer: Its value is “not soluble”.

Question: With “MSLGRLVLNTKEELANERLMTLKIAEMKEAMRTLIFPPSMHFFQAKHLIERSQVFNILRMMPKGAALHLHDIGIVTMDWLVRNVTYRPHCHICFTPRGIMQFRFAHPTPRPSEKCSKWILLEDYRKRVQNVTEFDDSLLRNFTLVTQHPEVIYTNQNVVWSKFETIFFTISGLIHYAPVFRDYVFRSMQEFYEDNVLYMEIRARLLPVYELSGEHHDEEWSVKTYQEVAQKFVETHPEFIGIKIIYSDHRSKDVAVIAESIRMAMGLRIKFPTVVAGFDLVGHEDTGHSLHDYKEALMIPAKDGVKLPYFFHAGETDWQGTSIDRNILDALMLNTTRIGHGFALSKHPAVRTYSWKKDIPIEVCPISNQVLKLVSDLRNHPVATLMATGHPMVISSDDPAMFGAKGLSYDFYEVFMGIGGMKADLRTLKQLAMNSIKYSTLLESEKNTFMEIWKKRWDKFIADVATKEGHHHHHH” as the sequence, how does the “soluble on expression in E. coli” value read?
Answer: The value was “not soluble”.

Question: Which “soluble on expression in E. coli” value does the source give for “MAHHHHHHMASSEEEKRVAYCKQHNVHHLFELLATKLLLDRPENPFEYLREMLSKVEESEKSKQSYDPTVLSPPVNGAVEPLKKITLGTFGLDNAGKTTLISALGGQIEVNTTPTVGFTPTKFQTEKYDICIFDLGGAANFRGIWVHYFHDCHGLMFVIDSAADDAVVRESLNVLRDLSQHRYIKGKPILVLANKKDLENARGTKVIPNGFLDKLFGRNTAYRVVASCGIEEDPALEEGVEWLLSVVDKLHDTLEARVNCDTEEVKMEAKRKAAERLAALKTAS” here?
Answer: The value was “not soluble”.

Question: Which “soluble on expression in E. coli” value does the source give for “MKICLIDETGAGDGALSVLAARWGLEHDEDNLMALVLTPEHLELRKRDEPKLGGIFVDFVGGAMAHRRKFGGGRGEAVAKAVGIKGDYLPDVVDATAGLGRDAFVLASVGCRVRMLERNPVVAALLDDGLARGYADAEIGGWLQERLQLIHASSLTALTDITPRPQVVYLDPMFPHKQKSALVKKEMRVFQSLVGPDLDADGLLEPARLLATKRVVVKRPDYAPPLANVATPNAVVTKGHRFDIYAGTPV” here?
Answer: Its value is “not soluble”.

Question: With “MSTPDGDEKEQCFHRAIAKTSIYLDREPGNPELTVWLAINKASLAGAQGGFGALSLAKEAKSLLEGVIATSPQTLDGSAYTSLGSLYYKVPGWPIGFGDDDKAEEMLKKALEINPKGIDPNYFYGDFLAEEGRDKEAKVYLTRAMQASPRPLEHHHHHH” as the sequence, how does the “soluble on expression in E. coli” value read?
Answer: Its value is “not soluble”.

Question: For “MSYQVTTLQARKDMARARLGQIPLPRITHIAFGTGGHLPGDVLTPVKPSETATSLEQEVARFPIASAVLKNDTTVEYKVVIPKGALSGVVLTEQALIDQNGKVVAIKTFGAKKKEPEDEFTFTWEEDF”, which “soluble on expression in E. coli” value is on record?
Answer: Its value is “not soluble”.

Question: For “VLIARRPEDKHQGGLWEFPGGKVEDGEPVRAALARELEEELGIRVERARPLIQVRHDYADKHVLLDVWEVDGFSGEAHGAEGQPLAWVEPRELADYEFPAANAPIVQAARLPAHYLITPDGLEPGELISGVRKAVEAGIRLIQLRAPNMFSPEYRDLAIDIQGLCAGKAQLMLKGPLEWLGDFPAAGWHLTSAQLRKYASAGRPFPEGRLLAASCHDAEELALAASMGVEFVTLSPVQPTESHPGEPALGWDKAAELIAGFNQPVYLLGGLGPQQAEQAWEHGAQGVAGIRAFWPGGL”, which “soluble on expression in E. coli” value is on record?
Answer: The value was “not soluble”.

Question: With “SCIIFLKFDPRPASKNAYRLILAANRDEVYSRPSKAAEFWGSSSEILSGLDMEEGKEGGSWLGISKRGKLAALTNYLEARQNPDAQGRGFLVSNYLTDNLDSLAYLRKVSSEAHLYNGFNLLTAEFRANEDTLCYYGNKGSSEPIHLKAGIYGLSNSLLETPWRKLQHGKQLFSSVVSKTLPPDGLVQELLHILNNEELNTPDPAQESQGVGYSNAMLRALSAVCVRSPGYGTRTNTVILIDREGNVSFTERTMQNCDITQWSTNSFHFRLQE” as the sequence, how does the “soluble on expression in E. coli” value read?
Answer: Its value is “soluble”.

Question: For “MSSISLIQPDRDLFSWPQYWAACFGPAPFLPMSREEMDQLGWDSCDIILVTGDAYVDHPSFGMAICGRMLEAQGFRVGIIAQPDWSSKDDFMRLGKPNLFFGVTAGNMDSMINRYTADRRLRHDDAYTPDNVAGKRPDRATLVYTQRCKEAWKDVPVILGGIEASLRRTAHYDYWSDTVRRSVLVDSKADMLMFGNGERPLVEVAHRLAMGEPISEIRDVRNTAIIVKEALPGWSGVDSTRLDTPGKIDPIPHPYGEDLPCADNKPVAPKKQEAKAVTVQPPRPKPWEKTYVLLPSFEKVKGDKVLYAHASRILHHETNPAVPAH”, which “soluble on expression in E. coli” value is on record?
Answer: The value was “not soluble”.

Question: Which “soluble on expression in E. coli” value does the source give for “MSLNSLDTSASTINGASIIQVIFEIFEISLQRKDYTSIVQCCEFMTMLTPNYLHLVSSYLNKSDLLDKYGKTGLSNMILGSVELSTGDYTFTIQLLKLTKVFIRESLSLKNIHISKRSKIDIINKLILHAIHIFESYYNWKYNNFLQKFEIAFHLTLIFYDVLHDVFTINPHQKDQLIISSSANKLLQLFLTPMDSIDLAPNTLTNILISPLNTTTKILGDKILGNLYSKVMNNSFKLCTLLISIRGSNRDLKPSNLEKLLFINSSKLVDVYTLPSYVHFKVQIIELLSYLVEAPWNDDYPFLLSFLGEAKSMAFLKEVLSDLSSPVQDWNLLRSLYIFFTTLLESKQDGLSILFLTGQFASNKKINDESSIDKKSSILTVLQKNSLLLDSTPEEVSCKLLETITYVLNTWTNSKIFIKDPKFVNSLLAKLKDSKKLFQKKENLTRDETVSLIKKYKLISRIVEIFALCIYNSTDSNSEILNFLNQEDLFELVHHFFQIDGFNKTFHDELNLKFKEKWPSLELQSFQKIPLSRINENENFGYDIPLLDIVLKADRSWNEPSKSQTNFKEEITDASLNLQYVNYEISTAKAWGALITTFVKRSTVPLNDGFVDLVEHFLKLNIDFGSDKQMFTQIYLERIELSFYILYSFKLSGKLLKEEKIIELMNKIFTIFKSGEIDFIKNIGKSLKNNFYRPLLRSVLVLLELVSSGDRFIELISDQLLEFFELVFSKGVYLILSEILCQINKCSTRGLSTDHTTQIVNLEDNTQDLLLLLSLFKKITNLNPSKNFNVILASSLNEVGTLKVILNLYSSAHLIRINDEPILGQITLTFISELCSIEPIAAKLINSGLYSVLLESPLSVAIQQGDIKPEFSPRLHNIWSNGLLSIVLLLLSQFGIKVLPETCLFVSYFGKQIKSTIYNWGDNKLAVSSSLIKETNQLVLLQKMLNLLNYQELFIQPKNSDDQQEAVELVIGEGHHHHHH” here?
Answer: The value was “not soluble”.

Question: With “MAHHHHHHMSENVAAAQRRWQAGMHEVEAYLNALDSARADSAKAGLYHRAQQCMQHMEKIIRLLAKRIAREANIMAERARQALTEQQRLLQRNLRKRWKTKMLVYEENASAMLAAAEQHHYAERVREDERAHEELRSVRAGGSMAHSRSSKVQHLQSEIQLYLRQHRYREAERAQAQLSRFEKQEQQSQQRNLTHLQEQRLQAMRMKQEEQLAKMKAAYQQEKQEITRTCRAELDAMTRQHEVALQAVEERRLFLHERVQAILKAYNDADTLDPRAAGQKLIRISQLLWTSREVQQSSKRI” as the sequence, how does the “soluble on expression in E. coli” value read?
Answer: The value was “not soluble”.

Question: With “LDQILRATVEEVRAFLGTDRVKVYRFDPEGHGTVVAEARGGERLPSLLGLTFPAGDIPEEARRLFRLAQVRVIVDVEAQSRSISQPESWGLSARVPLGEPLQRPVDPCHVHYLKSMGVASSLVVPLMHHQELWGLLVSHHAEPRPYSQEELQVVQLLADQVSIAIAQAELSL” as the sequence, how does the “soluble on expression in E. coli” value read?
Answer: The value was “soluble”.

Question: For “MAHHHHHHMGDESNAIGQEALLYDKMFRVMRTVGEMMCDRKYQVADKIIPSSVEEFKDWYTDPREGVIYRDRMTVPCERIGVSQRSRAMVFFSEGLSMETMKRYHTQASEANCDRVIIVVQGRINAIVKRHVEDINRSSLGLKIQLFDEDDLVVNITHHELVPKHTQLEDEEVKEMLQAHALELSALPRILSTDPVAAYLGLERGRVVRIERKSMSAGFYVTYRQVV”, which “soluble on expression in E. coli” value is on record?
Answer: The value was “not soluble”.

Question: With “MEGSQQTITSKQLVRMLKDASRGSKGKGSGEMKFCFLIGAGASISSGIPSGAKLAWDWLQQIKEDCDGEDFEDWKIEIKMPDQHIEERVGEFYPEIYEKRFGHAPETGYDYIRGLMEGREPSLGYLILANIMVREKHNVVITTNFDNLLEDAIRTYTKEKPFIAGHEALADYVPKRSDRPIILKLHRDLFLQPFSDQLNTDILQAAWESILGKFLSDYHLIVLGYGGNDGSLMNYLLKLKNRKPIYWCVRNTDKATSKSLWNTLSPKAKRLLKNDGYLVPIDDFDRFMYDCYAALGYKFLEGIEKIEKPKSIHEILKPNYARIESIQTQLRQLSQTEEELSKESFQSIKSFLPDSWMWILKANQEKDIDKKDKIYREGIAKYPQDANLLGDYADFLCDICHD” as the sequence, how does the “soluble on expression in E. coli” value read?
Answer: The value was “not soluble”.
